Reference: paper PMC10945824 (Proceedings of the National Academy of Sciences of the …, 2024)
Read-outs that look alike come from different tables or passages of the source.

B1: human paraneoplastic antigen Ma2 (PNMA2), recombinant, wild type (natural protein, UniProt Q9UL42 1-364, looked up)
chain: MALALLEDWCRIMSVDEQKSLMVTGIPADFEEAEIQEVLQETLKSLGRYRLLGKIFRKQENANAVLLELLEDTDVSAIPSEVQGKGGVWKVIFKTPNQDTEFLERLNLFLEKEGQTVSGMFRALGQEGVSPATVPCISPELLAHLLGQAMAHAPQPLLPMRYRKLRVFSGSAVPAPEEESFEVWLEQATEIVKEWPVTEAEKKRWLAESLRGPALDLMHIVQADNPSISVEECLEAFKQVFGSLESRRTAQVRYLKTYQEEGEKVSAYVLRLETLLRRAVEKRAIPRRIADQVRLEQVMAGATLNQMLWCRLRELKDQGPPPSFLELMKVIREEEEEEASFENESIEEPEERDGYGRWNHEGDD
B2: HA-tagged human PNMA2 secreted by HEK293FT cells (natural protein, UniProt Q9UL42 1-364, looked up)
chain: B1 chain

Columns and labels:
negative-stain TEM [1] = target: the molecule itself; test: negative-stain TEM
cryo-EM structure = target: the molecule itself; test: cryo-EM structure
negative-stain TEM [2] = target: the molecule itself; test: negative-stain TEM; remark: listed apart in the source

Protein	binding result (negative-stain TEM [1])	stoichiometry N (cryo-EM structure)	binding result (negative-stain TEM [2])
B1	binds	60	
B2			binds
